Measurements as given in US20220332795A1 (ARO BIOTHERAPEUTICS, published 2022).

Assays:
[1] = target: T1, recombinant biotinylated CD71 extracellular domain (Sino Biologics) with an N-terminal 6His tag (human, UniProt P02786 89-760, biotinylated (site not stated)); test: primary solution ELISA screen, signal on hCD71 over HSA
T1 construct: extracellular domain; also called hCD71; huCD71 ECD

[2] = target: T1, recombinant biotinylated CD71 …; test: primary solution ELISA screen
[3] = target: T2, CD71 apical domain (UniProt P02786 189-383, limits assumed); test: solution ELISA
T2 construct: domain: Apical domain
T2 sequence (P02786 189-383 limits assumed): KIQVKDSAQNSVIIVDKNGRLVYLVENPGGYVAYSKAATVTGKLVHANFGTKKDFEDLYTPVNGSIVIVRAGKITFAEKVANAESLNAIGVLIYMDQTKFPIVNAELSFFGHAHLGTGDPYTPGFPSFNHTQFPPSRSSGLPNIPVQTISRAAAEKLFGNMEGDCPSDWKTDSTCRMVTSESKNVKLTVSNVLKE

[4] = target: T3, recombinant biotinylated human CD71 extracellular domain (human, UniProt P02786 89-760, biotinylated); test: solution ELISA
T3 construct: extracellular domain; also called hCD71; huCD71 ECD
T3 sequence (P02786 other isoform, or with tags, fused parts or gaps): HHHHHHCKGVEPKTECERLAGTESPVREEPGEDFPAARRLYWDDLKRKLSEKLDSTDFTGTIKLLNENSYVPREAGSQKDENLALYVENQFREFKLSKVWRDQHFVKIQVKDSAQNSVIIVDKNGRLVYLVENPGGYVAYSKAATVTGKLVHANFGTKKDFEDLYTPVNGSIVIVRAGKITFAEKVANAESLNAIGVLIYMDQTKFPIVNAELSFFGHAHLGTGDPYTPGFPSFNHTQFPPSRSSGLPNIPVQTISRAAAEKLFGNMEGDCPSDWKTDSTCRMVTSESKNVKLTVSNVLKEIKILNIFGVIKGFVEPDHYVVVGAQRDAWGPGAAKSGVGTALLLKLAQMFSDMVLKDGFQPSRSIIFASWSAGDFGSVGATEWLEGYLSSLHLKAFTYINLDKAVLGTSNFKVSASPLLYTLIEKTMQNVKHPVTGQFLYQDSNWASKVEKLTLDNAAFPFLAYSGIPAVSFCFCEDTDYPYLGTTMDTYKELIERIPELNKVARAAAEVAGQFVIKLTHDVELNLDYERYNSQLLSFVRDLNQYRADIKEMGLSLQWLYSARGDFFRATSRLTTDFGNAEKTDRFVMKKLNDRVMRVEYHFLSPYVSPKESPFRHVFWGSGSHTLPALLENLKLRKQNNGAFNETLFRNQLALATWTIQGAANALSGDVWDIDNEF

[5] = target: T2, CD71 apical domain; test: solution ELISA, signal ratio to HSA
[6] = target: T3, recombinant biotinylated human CD71 …; test: solution ELISA, signal ratio to HSA

T1 sequence (P02786 other isoform, or with tags, fused parts or gaps): as above

| Binder | hCD71:HSA [1] | RLU [2] [RLU] | Apical domain, RLU [3] [RLU] | hCD71, RLU [4] [RLU] | apical domain:HSA [5] | hCD71:HSA [6] |
| --- | --- | --- | --- | --- | --- | --- |
| SEQ ID NO 1 (designed binder, not shown: small tags and cut ends, FN3 domain, hit of the apical domain panning) MLPAPKNLVVSRVTEDSARLSWTAPDAAFDSFPITYIEAVVLGEAIVLTVPGSERSYDLTGLKPGTEYPVGISGVKGGHNSMPLSAIFTT | 96 | 1.51e+06 |  |  |  |  |
| SEQ ID NO 4 (designed binder, not shown: small tags and cut ends, FN3 domain, hit of the apical domain panning) MLPAPKNLVVSEVTEDSARLSWQGVARAFDSFLITYRDQIFAGEVIVLTVPGSERSYDLTGLKPGTEYPVWIQGVKGGSPSAPLSAESTT | 12 | 2.1e+06 |  |  |  |  |
| SEQ ID NO 5 (designed binder, not shown: small tags and cut ends, FN3 domain, hit of the apical domain panning) MLPAPKNLVVSEVTEDSARLSWQGVARAFDSFLITYREQIFAGEVIVLTVPGSERSYDLTGLKPGTEYWVYIWGVKGGKPSFPLRAGFTT | 39 | 1.73e+06 |  |  |  |  |
| SEQ ID NO 7 (designed binder, not shown: small tags and cut ends, FN3 domain, hit of the apical domain panning) MLPAPKNLVVSDVTEDSARLSWQGVARAFDSFLITYREQIFAGEVIVLTVPGSERSYDLTGLKPGTEYPVWIQGVKGGSPSAPLSAEFTT | 29 | 761000 |  |  |  |  |
| SEQ ID NO 15 (designed binder, not shown: small tags and cut ends, FN3 domain, hit of the apical domain panning) MLPAPKNLVVSRVTEDSARLSWQGVARAFDSFLITYREQIFAGEVIVLTVPGSERSYDLTGLKPGTECPVWIQGVKGGSPSAPLSAEFTT | 35 | 512000 |  |  |  |  |
| SEQ ID NO 28 (designed binder, not shown: small tags and cut ends, FN3 domain, hit of the apical domain panning) MLPAPKNLVVSEVTEDSARLSWQGVVRAFDSFLITYREQIFAGEVIVLTVPGSERSYDLTGLKPGTEYPVWIQGVKGGSPSAPLSAEFTT | 28 | 383000 |  |  |  |  |
| SEQ ID NO 32 (designed binder, not shown: small tags and cut ends, FN3 domain, hit of the apical domain panning) MLPAPKNLVVSRVTEDSARLSWQGVARAFDSFLITYREQIFAGEVIVLTVPGSERSYDLTGLKPGTEYGVTIAGVKGGWRSKPLNAESTT | 75 | 342000 |  |  |  |  |
| SEQ ID NO 36 (designed binder, not shown: small tags and cut ends, FN3 domain, hit of the apical domain panning) MLPAPKNLVVSEVTEDSARLSWQGVARAFDSFLITYREQIFAGEVIVPTVPGSERSYDLTGLKPGTEYPVPIAGVKGGGPSAPLSAIFTT | 60 | 288000 |  |  |  |  |
| SEQ ID NO 41 (designed binder, not shown: small tags and cut ends, FN3 domain, hit of the apical domain panning) MLPAPKNLVVSRVTEDSARLSWQGVARAFDSFLITYREQIFAGEVIVLTVPGSERSYDLTGLKPGTEYPVWIQGVKGGHLSDPLSAIVTT | 12 | 1.37e+06 |  |  |  |  |
| SEQ ID NO 53 (designed binder, not shown: small tags and cut ends, FN3 domain, hit of the apical domain panning) MLPAPENLVVSEVTEDSARLSWQGVARAFDSFLITYREQIFAGEVIVLTVPGSERSYDLTGLKPGTEYPVWIQGVKGGSPSAPLSAESTT | 40 | 1.27e+06 |  |  |  |  |
| SEQ ID NO 70 (designed binder, not shown: small tags and cut ends, FN3 domain, hit of the apical domain panning) MLPAPKNLVVSRVTEDSARLSWQGVARAFDSFLITYREQIFAGEVIVLTVPGSERSYDLTGLKPGTEYPVWIQGVKGGDLSNPLSAIFTT | 10 | 991000 |  |  |  |  |
| SEQ ID NO 73 (designed binder, not shown: small tags and cut ends, FN3 domain, hit of the apical domain panning) MLPAPKNLVVSEVTEDSARLSWQGVARAFDSFLITYREQIFAGEVIVLTVPGSERSYDLTGLKPGTEYPVWIQGVKGGSPSAPLSAESTT | 73 | 1.47e+06 |  |  |  |  |
| SEQ ID NO 81 (designed binder, not shown: small tags and cut ends, FN3 domain, hit of the apical domain panning) MLPAPKNLVVSRVTEDSARLSWQGVARAFDSFLITYVELRHLGEAIVLTVPGSERSYDLTGLKPGTEYPVWIQGVKGGSPSAPLSAEFTT | 88 | 864000 |  |  |  |  |
| SEQ ID NO 84 (designed binder, not shown: small tags and cut ends, FN3 domain, hit of the apical domain panning) MLPAPKNLVVSRVTEDSARLSWQGVARAFDSFSILYLELTPKGEAIVLTVPGSERSYDLTGLKPGTEYPVWIQGVKGGSPSAPLSAEFTT | 28 | 3.53e+06 |  |  |  |  |
| SEQ ID NO 94 (designed binder, not shown: small tags and cut ends, FN3 domain, hit of the apical domain panning) MLPAPKNLVVSEVTEDSARLSWQGVARAFDSFLITYREQIFAGEVIVLTVPGSERSYDLTGLKPGTEYPVWIQGVKGGSPSAPLSAIFTT | 12 | 1.02e+06 |  |  |  |  |
| SEQ ID NO 102 (designed binder, not shown: small tags and cut ends, FN3 domain, hit of the apical domain panning) MLPAPKNLVVSRVTEDSARLSWQGVARAFDSFLITYREQIFAGEVIVLTVPGSERSYDLTGLKPGTEYPVWIQGVKGGSPSAPLSAEFTT | 11 | 444000 |  |  |  |  |

| Binder | hCD71:HSA [1] | RLU [2] [RLU] | Apical domain, RLU [3] [RLU] | hCD71, RLU [4] [RLU] | apical domain:HSA [5] | hCD71:HSA [6] |
| --- | --- | --- | --- | --- | --- | --- |
| SEQ ID NO 37 (designed binder, not shown: small tags and cut ends, FN3 domain, hit of the apical domain panning) MLPAPKNLVVSRVTEDSARLSWTTPDAAFDSFPIYYWEVTITGEAIYLSVPGSERSYDLTGLKPGTEYPVDIPGVKGGAASPPLSAIFTT | 103 | 2.95e+06 |  |  |  |  |
| SEQ ID NO 38 (designed binder, not shown: small tags and cut ends, FN3 domain, hit of the apical domain panning) MLPAPKNLVVSRVTEDSARLSWTAPDAAFDSFPILYLEHTVRSEAIVLTVPGSERSYDLTDLKPGTEYCVPIDGVKGGLRSRPLSAIFTT | 63 | 518000 |  |  |  |  |
| SEQ ID NO 39 (designed binder, not shown: small tags and cut ends, FN3 domain, hit of the apical domain panning) MLPAPKNLVVSRVTEDSARLSWTAPDAAFDSFPIPYTEPPDPGEAIVLTVPGSERSYDLTGLKPGTEYLVTILGVKGGSMSVPLSAIFTT | 29 | 1.48e+06 |  |  |  |  |
| SEQ ID NO 40 (designed binder, not shown: small tags and cut ends, FN3 domain, hit of the apical domain panning) MLPAPKNLVVSRVTEDSARLSWTAPDAAFDSFTIDYWENRCPGEAIVLTVPGSERSYDLTGLKPGTEYCVWISGVKGGYSSWPLSAIFTT | 16 | 223000 |  |  |  |  |
| SEQ ID NO 12 (designed binder, not shown: small tags and cut ends, FN3 domain, hit of the apical domain panning) MLPAPKNLVVSRVTEDSARLSWTAPDAAFDSFFIPYAEPSPTGEAIVLTVPGSERSYDLTGLKPGTEYSVLIHGVKGGHLSDPLSAISTT | 25 | 1.24e+06 |  |  |  |  |
| SEQ ID NO 42 (designed binder, not shown: small tags and cut ends, FN3 domain, hit of the apical domain panning) MLPAPKNLVVSRVTEDSARLSWTAPDAAFDSFLIPYAETSPSGEAIVLTVPGSERSYDLTGLKPGTEYSVLIHGVKGGDYSEPLSAIFTT | 586 | 586000 |  |  |  |  |
| SEQ ID NO 44 (designed binder, not shown: small tags and cut ends, FN3 domain, hit of the apical domain panning) MLPAPKNLVVSRVTEDSARLSWTAPDAAFDSFFIPYAEPSPTGEAIVLTVPGSERSYDLTGLKPGTEYSVLIHGVKGGHLSDPLSAIVTT | 13 | 715000 |  |  |  |  |
| SEQ ID NO 111 (designed binder, FN3 domain) MLPAPKNLVVSRVTEDSARLSWTAPDAAFDSFFIGYLEPQPPGEAIDLGVPGSERSYDLTGLKPGTEYNVTIQGVKGGFPSMPLDPLEAYFTT |  |  | 113000 | 2.41e+06 | 0.8 | 17.9 |
| SEQ ID NO 115 (designed binder, FN3 domain) MLPAPKNLVVSRVTEDSARLSWTAPDAAFDSFYIAYAEPRPDGEAIELHVPGSERSYDLTGLKPGTEYSVLIHGVKGGLLSSPLFTT |  |  | 150000 | 3.47e+06 | 0.9 | 20.1 |
| SEQ ID NO 130 (designed binder, FN3 domain) MLPAPKNLVVSRVTEDSARLSWTAPDAAFDSFVIEYFEWTLNGEAIVLTVPGSERSYDLTGLKPGTEYSVQIYGVKGGCLSRPLSAIFTT |  |  | 106000 | 1.61e+06 | 0.9 | 13.2 |
| SEQ ID NO 162 (designed binder, FN3 domain) MLPAPKNLVVSRVTEDSARLSWTAPDAAFDSFYIAYAEPRPDGEAIKLEVPGSERSYDLTGLKPGTEYSVLIHGVKGGLLSSPLAIFTT |  |  | 93100 | 638000 | 2.5 | 17 |
| SEQ ID NO 172 (designed binder, FN3 domain) MLPAPKNLVVSRVTEDSARLSWTAPDAAFDSFFIGYLEPQPPGEAIVLTVPGSERSYDLTGLKPGTEYNVTIQGVKGGFPSMPLASFTT |  |  | 353000 | 377000 | 12.5 | 13.4 |
| SEQ ID NO 184 (designed binder, FN3 domain) MLPAPKNLVVSRVTEDSARLSWTAPDAAFDSFFIGYLEPQPPGEAIDLAVPGSERSYDLTGLKPGTEYSVLIHGVKGGLLSSPLSFTT |  |  | 120000 | 4.04e+06 | 0.8 | 27.9 |
| SEQ ID NO 187 (designed binder, FN3 domain) MLPAPKNLVVSRVTEDSARLSWTAPDAAFDSFFIGYLEPQPPGEAISLLVPDSERSYDLTGLKPGTEYNVTIQGVKGGFPSMPLKFTT |  |  | 77900 | 796000 | 1.1 | 10.9 |
| SEQ ID NO 192 (designed binder, FN3 domain) MLPAPKNLVVSRVTEDSARLSWTAPDAAFDSFDIGYTEYGGYGEAIYLSVPGSERSYDLTGLKPGTEYWVLIQGVKGGGSSVPLSAIFTT |  |  | 7.58e+06 | 1.77e+06 | 342 | 79.9 |
| SEQ ID NO 202 (designed binder, FN3 domain) MLPAPKNLVVSRVTEDSARLSWTAPDAAFDSFDIGYTEYGGYGEAILHVPGSERSYDLTGLKPGTEYWVLIQGVKGGGSSVPLSAIFTT |  |  | 5.47e+06 | 1.51e+06 | 212 | 58.6 |
